Assay: protease stability score; higher = more stable; yeast display proteolysis, trypsin and chymotrypsin;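 further: relative to predicted unfolded state with 0 unfolded-like and 1 meaning tenfold more protease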

## SEEDKLAREIFEETIRILLTGDEEKLEELLDPRVRVHIHIGDKRIDLHGREEMSKWLHEIRIEHFHIDDLKVQGDKLHADTHEVVRIGDKRIETRTEWELVVVNGRLKELHIRVK
  protease stability score: 1.74

## SEEDKLIKDAFTEIHTWIKTGNEEYLERLVDPHVKIIINGRELHGMEFLHEELKRFDHLHLRDHHLESFDIQGNKIVLEGTNDIEIKWNGVRIRTELEIHFFVEKVNGKWIIREFVIV
  protease stability score: 1.26

## SEEDKLMRDIERLVLEWLETGDEDALKKMLDPHVRVEFNGVERIGMDELARLLKHLRFDHIHIRNSRVINGVIHIDGHIDGTINGRRVRHDLEVRIIIVNGRFKEIILIDR
  protease stability score: 1.21

## SEEDKLSEELARRWIHLFETGDEETILHLADPHMKYILIINGRNEIHHGMKMMSEELKRIKGARFEIKRIEVQGDKVHLDVRIRIDGVEIDSEIDLKIVDGRLRELKVTIK
  protease stability score: 2.07

## SEEDKMVEDWLREWIELHLTGDFEQWESLFDPNTRSRAHVGDKRFESHGREQVVEVRHEIKREMRITDIDDKHIRVFNGRADLIGFMRGDINGRHVRLEIHVILVIVNGKRKEEEVRIH
  protease stability score: 0.155

## SEEDKSFEIMFKLFKEASDTGDEKTLSELFDPDTRIDIGDKHLHGREEAVRMWRELRIHDIRVKSFDIIGNKIHLDTHVNGLVNGRLHRTDSKIILLKVNGQWRIESYHVD
  protease stability score: 1.77

## SEEDKTALEMFERLIHAWLTGDEDEMRRMADPHVKIDKEFENHEVQFHGREDFVRWVIEVRDRIDHLEIRNHSIRTWNGVVHVHTTLFLNYDGKLFILRTEFRLFVIDGRLREERFMLH
  protease stability score: 0.282

## SEEDKWAEIMARLMSYLNHTGDEENFDRLADPDVRMDINGREVHGRETFNRYLRHIRIRFHDLISRDSTEVNGVLIIHGESDITIEYDGVRLRDHPKSVFYVLKINGRWRIKSISFH
  protease stability score: 1.41

## SEEDKWIKDMTHLFLHWFLTGDEEIFNHFADPNVRVQYGDKWRVGRERVSEFNEFVLRELRFKEIRLKNLSTQGEKATSIVRVDVQFDGKEIDIEIRIHIVVVDGVLKQVEIRET
  protease stability score: 0.795

## SEEDKYAKLVIRLLEEMIRTGDEESSIRLADPHARVNINGKDMHGREEFTKWIRQFDVVRDFELKDSDYQGDFIFVDGVLDGEVGDKRMRTKVEIIIFKFNGKWRTKEVWVR
  protease stability score: 1.38

## SEEDQHIEEALRRISKVIHTGDEDKLEELVDPHVRLDVGDKVFHGWEDFVRFMTELRFHHMHVTHLETQGDKVRVELSLDREQGDKRKEMHAHIVLEKIDGKWVVREVEMR
  protease stability score: 1.35

## SEEDQLLHHQMETWRHMIHTGDEELLERFLDPTVRIEYDGQEHHGRETAAHLFRELAEKLGIEFEDLEIHETEIQGDKIRVDTILYVDINGRKLVFRTHTVWEKINGRWILREIKIE
  protease stability score: 0.043

## SEEDRDLHESAKLSEEIEDTGDEHMIHKQADPNVRLDYNGREFHGREMFSKMMIEWFTKLGVDHVHRKEMRIQGDWIHLHFEVRVGDKRHEVHVVALKVNGRWLHHSFEVHER
  protease stability score: 1.16

## SEEDRDMEHVINVLRHLMVTGDEEELTKMADPTAYSDVNGVELHGREAFSRIVKLMGVKHVEIRDFTVQGDKVDVDGETRFENHHRFSIIHLRKINGRWYIERMRLE
  protease stability score: 0.771

## SEEDRDRHKALELIRESSRTGNEELTSRLADPHVRLVFNGRDVHGREEMVRYMHEFGIDHLHIDRLHVQGDKIHIEGSNDWNGVVTELHVLMVKVNGRWRIREVEWR
  protease stability score: 1.23

## SEEDRDVRHFLEVWWHRVQTGDEDSLHELADPRMRVDINGRILHGREHISRFMIELTESFGATPEDFQIEHVDTVGNKVHIKTRIFIRQGNFNLIRDTEMIVLKVDGRWLLTEVRVR
  protease stability score: 2.6

## SEEDRFAIEVSEELSRAIETGDEDRLRHLLDPNVKVNVGDKTLHGREEYLHYLRELLRDLGVDVIHIEFQDVRFIGDKLVIDGSLDLRVGDKVIEHKITIIIWKFDGRWVSHSEHIH
  protease stability score: 1.25

## SEEDRFLYEFARTILHLFETGNEEIFHKLADPHVRLHVNGVDNVGWERSYKFFHEEVRELRFHTWRIRDHRTFENRAHLDIEVDTEFNGVRLHLKSTLDVVVVNGRLKFFHIKQE
  protease stability score: 0.424

## SEEDRILELIARMMFNLWLTGNEEELERLVDPNARSVINGQEVHGMHETKELLRRLKEHIRIDDMRISRIEVYNGRAIVDLSVDGEFNGRRDITRVEIVIYVVDGKVRSIEFHRK
  protease stability score: 1.78

## SEEDRLHEEWIEESFKIWETGDEERFWKMVDPEYLFRLDIDGVHLESHGRENAREHFREQLSRLGIKYLDLHEIHLQGNKAILDVRVNFNGQERHVIIRLLIIDGRIKKREIEIR
  protease stability score: 1.41

## SEEDRLLEELLKLYLHLEATGNEDRFAELVDPDARMDFNGREHHGREEIRHHMVKHWKDLGVKHLHIDRFRYFNGVLDVRGHLKVNGREKDVVWILEIIDGRIHEIRHHLH
  protease stability score: 1.28

## SEEDRSSREAVEIYIWIIETGDEHLMEEFLDPHVRSHQGEFHSHGREVAHVYVKKFKNLKVRVREVRTQGDKVIIISEMRIGDFRLELTIIIWKYNGKWIVQEVDIK
  protease stability score: 1.67

## SEEDRYDKKMLERLNEAEHTGDWRLFLRQADPDPRTVIGDKELHGWEILEEFLLKIHEQYKGMRFEYRDIDVQGDKIRIEYDLFINGKFTETILIADKVNGKWIIKSHELR
  protease stability score: 0.898

## SEEDSKAMEMLDEWLKWLLTGNEHIFRTLADPHVRLTIGDKEHVGREHVIRMFHELRIDHFHVHDVRTQGDKAFMSGRMEGTVDGKKEDTDIRIFLVIVNGRIKHIELRIH
  protease stability score: 1.52

## SEEDTERTERFELMLHSWLTGDEEFWEKNADPNARLKLLVNGRDIRFHGREMVSEAIRKTLDDLGVDHRRIEHKEVQGDKVHIHQKIDVGDKELKVRIVVVVINGRNEMIIVEVI
  protease stability score: 2.26

## SEEDTMAKTLTKMEIELLRTGDEDLLWRLADPNVKLHINGRDLHGRETFEEWMKRFLEQVDVLRIEHREIRTAEGHLELDMHVDSYFDGVRFTTRLIVEVIKVDGRWFIRFREEQ
  protease stability score: 1.21

## SEEDVLHHELARIYWRDFVTGDEDSLRRLMDPEAKVNFDGRENHGREFYEEILRLFLEKFRGVRFEEHRSRFIGEFTHIDVRMHIDGKTHSLKVLVTVVNGKVHSIHIQLR
  protease stability score: 1.26

## SEEEDDLQHYIDVLRHILHTGDWQKFSEMADPTVKLKINGVEYHGREKLAHMLKKHLEELGYTRIEVELRSITIQGEFIKSDIKLDVNGQELRVRVDFYKINGKWSMTFLQIE
  protease stability score: 1.45

## SEEEDEIRKMLEEVLKNWRTGNEERIYELADPNTRVEIDGREHHGRHVVAHLIKEWRIHDFILRRVDVQGNKVIIHGELEGEFDGKRTNLHTNLVLVKIDGRWVIESLHYV
  protease stability score: 1.41

## SEEEDESEEMARLFVKANITGDEKFLYHMADPHVRIHIHQGNKYIELHGREKLEYWLKEWLEKFKNIRYTINDMKVVGEKVTIESTLQIGDKRIHMQIVIVVINGRIHKFEFHLH
  protease stability score: 0.755

## SEEEDESKLATELLIKLLRTGNEHLSERLMDPNMRIVVNGVELHGREEAQRHMREMITQIKNAKIEIRDERTQGEYIKVNMILHYGDKTIDLRVVLVKVDGRWKITEIVLN
  protease stability score: 1.8

## SEEEDFMRQVYHWFLELWLTGDEDIFKKLADPDTLLDWNGVQSVGMEEFHRLLHEMEERLGVKHKEYKRFRIQGNKVHLDLVHEFNGRRIKTEIVVVVVNGRFKEIRIRHH
  protease stability score: 1.79

## SEEEDHAKEMFRILIENLITGDEDTLRKLIDPDVRFIYGDKLHVGWKDFREWQHRMDRRVKNMKIHVRDMRVYNGVSHAETEEHYNGKTVETEVHFKVIDGQLKHLEIRIH
  protease stability score: 0.188

## SEEEDHIREFLLLIIHAFRTGDEEFFERNVDPNVRLHSDVDGRELQLHGRDEFSRYFHHFRHRAGIDHIEDKRVTSQGDKIIVHGWSIVGDKIHHLELHFIVIDGQVHTVEIRPK
  protease stability score: 1.28

## SEEEDHIRRAIERFSKDQETGDEDSIRELLDPHVRMHVDGQELIGRDLILKFWSELRVHHWEMHSVRVVGDYVDFDVTLDMRVGDKSHRIKATLIILKIDGRWILKLVIID
  protease stability score: 1.19

## SEEEDISRNLLEIFLRVLLTGDEHAISRLLDPRVLVIFHFENRDIILHGRSNVLKWLHDRLREIRINDWSVKSVEVQGNKAHQDTRIDIIIGDKKIDKEVEVNITVVDGKVKHLEIRVH
  protease stability score: 2.21

## SEEEDKARHLFDRLVHAWHTGDWRELKHLLDPNAKFVLEYGDKKETYHGMDEEIRYLEELHKRVDHIHFLIRHVDIQGDKLRVEGELEYRVGDYERRIPTSYEVIVIDGRIHEIISRIH
  protease stability score: 2.11

## SEEEDLFRKIIELLLRLSKTGDEETWRRLMDPHARLEINGRIFHGREYAERFMTQFDHIHSIEIKDMHIYNGKVEEHGHVDGIVNGRRTKHDMVFILVKVDGVWLIEEVVVR
  protease stability score: 1.39

## SEEEDLHRHIMRLFLEWVLTGDEEDLYHFADPHTQFRYGDYELHGMEKIVEEILRFTHELRITHFTIHQMDVFNGKAESDVEWHKDVNGQEVRFRLKLILIVINGRTKSIEIRHK
  protease stability score: 1.23

## SEEEDLMRHLTELYIRAFETGDEDHLRKLADPHVRLHVDIDGKRLDFHGMEQTSEWWERMGIDVHHLHHHEFIGDKSHIDSEVVFNGRKRKFEINVVIVNGRIKSERHIFK
  protease stability score: 0.691

## SEEEDLVQKAFEIFVHDIRTGDEDSLIENADPNVRLLINGVIFHGREEFKFIMRHWRIRRIELHDYRIQGDKAHVESRMDIEFNGRIRITHVELVILKVNGQWLIHTIKVI
  protease stability score: 0.454

## SEEEDLWKEFLRRLVETSNTGNERILSELFDPRTRIIYNGVDYVGREWALFMFLRADHVHIRIKSVDVQGEKAHVDGRMIQFVGDKEERHEVQLIDVKIDGRWLIRMMTVR
  protease stability score: 1.51

## SEEEDMARHFNELFIKMLKTGNEEEIKKMADPEVRIIIDVGDYIERDHGWEVLKREREWLGIKHIDIERAEIRVFDGRVHLKLDGRSNVNGKEIEVEIINDTEKINGRWRMKNLRYIFK
  protease stability score: 1.08

## SEEEDMKRKLAEIFLHNELTGNEDRLMELLDPNTRMEFNGREVHGREQISEVLRRWLEEIRIDDSKLHDIRVINGVAHIDVRLRGTVDGRHTILQVHLYLFVVNGRIKSFRIEIR
  protease stability score: 1.53

## SEEEDQARKIMEILIHVFLTGDWHQLMRLLDPNTRYEIRFENHEEHNHGREDIVRWLIEFIEEMRTLVIIRHIEVQGDKAILDIELQLDINGREFRWKTLLHFRIVDGVLKMYYIHIE
  protease stability score: 1.47

## SEEEDRIRQALELELHYLRTGDEDSTRRLIDPHMKLTVNGKEHHGMDWFIEELRRVDHIEMHPHHIHSFGEKAHIRVKLTLHFDGVTFERDVTIVFHKVDGRWVIESMQLD
  protease stability score: 1

## SEEEDTADEAIKLWLKLFITGDERTLARMMDPNTLNVVGDKEFHGWQFIIELVHKLFEEIRIHELTVEHLHVQGDKVRIDIRIDSRQGDKRHETKVEVILRKVNGRWTVEVIEIH
  protease stability score: 2.39

## SEEEDTMRHLLHLLIEWELTGDWKNWQKLADPRTRIEINGRELHGRETYAEFIREVLEQFKNLVIHDFIMHDVKVFDGRVIVDGYVDTEINGVRTHIRVEFILIVVNGKLRRVSRIVR
  protease stability score: 1.57

## SEEEDYMRELAERFLHAFITGDWQFIYKMFDPRVRWNVDGQNFVGREQLVHHLEKIKREMRVRHFELKDIKIIDGVSFINGRVDTTYGDKSSEHEVHISLVLIDGRVKHVQIRLE
  protease stability score: 2.34

## SEEEEAARHVLEEWLRSIRTGDEEFTERLLDPEARFHVNGVEIIGREHIIRRLREIRIHDIKMDVREIRIVDGRISIDVTYRIDGEVNGVKVDTSHEVRLVFVKINGRWLNRKEEVR
  protease stability score: 1.66

Source: the NTF2 design screens of Basanta et al. (2020)
